For one test, the target named is T1, cynomolgus monkey CD3 (cynomolgus monkey, UniProt Q95LI5 22-198; Q95LI8 22-171; Q95LI7 23-181).
T1 construct: whole, on cells; CD3 on purified cynomolgus monkey CD3 pan T cells; also called cyno CD3; CD3 on cyno primary T cells
Put plainly: flow cytometry, cyno primary T cells. The procedure, abridged: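 Antibodies at 25 nM in PBS + 2% FBS were incubated with CD3-expressing cells for 30 min at 4 °C and read by flow cytometry. Median fluorescence intensity was normalized to isotype control as fold over isotype; ≥10 counted as binding.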

Test [1] concerns the target T2, human CD3 (human, UniProt P07766 23-207; P04234 22-171; P09693 23-182).
T2 construct: whole, on cells; also called CD3 on Jurkat cells; CD3 on human primary T cells
In words: flow cytometry, Jurkat cells. As for the experimental part: (§1) Purified antibodies were confirmed to bind CD3 expressed on cells using the CytoFLEX S or LX flow cytometers (Beckman Coulter). Antibodies were diluted to 25 nM in FACS buffer (PBS+2% FBS) and were incubated with CD3-expressing cells for 30 minutes at 4° C. […] The median fluorescence intensity of the binding signal for each antibody was normalized to the isotype control to obtain a fold over isotype value. An antibody with a fold over isotype (FOI) of ≥10 was considered to be positive for binding.

For test [2], the target named is T2, human CD3. In words: flow cytometry, Jurkat cells, 25 nM antibody. How it is done: as §1
Test [3] addresses T2, human CD3. Put plainly: flow cytometry, human primary T cells, 25 nM antibody. How it is done:
as §1

T2 sequence (P07766 23-207, chain 1 of 3): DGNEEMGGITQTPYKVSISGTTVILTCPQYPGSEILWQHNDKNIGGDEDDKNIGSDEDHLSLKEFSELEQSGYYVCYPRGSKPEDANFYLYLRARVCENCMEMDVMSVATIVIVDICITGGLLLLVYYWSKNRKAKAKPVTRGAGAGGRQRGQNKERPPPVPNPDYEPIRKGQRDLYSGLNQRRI
T2 sequence (P04234 22-171, chain 2 of 3): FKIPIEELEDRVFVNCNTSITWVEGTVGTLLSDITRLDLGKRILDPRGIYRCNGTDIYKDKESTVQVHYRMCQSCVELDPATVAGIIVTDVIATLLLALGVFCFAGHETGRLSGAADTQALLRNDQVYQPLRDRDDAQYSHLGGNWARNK
T2 sequence (P09693 23-182, chain 3 of 3): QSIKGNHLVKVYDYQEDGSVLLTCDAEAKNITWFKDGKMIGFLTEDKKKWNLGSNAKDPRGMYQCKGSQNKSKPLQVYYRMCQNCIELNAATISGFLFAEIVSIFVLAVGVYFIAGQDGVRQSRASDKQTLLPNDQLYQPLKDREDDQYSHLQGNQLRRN
T1 sequence (Q95LI5 22-198, chain 1 of 3): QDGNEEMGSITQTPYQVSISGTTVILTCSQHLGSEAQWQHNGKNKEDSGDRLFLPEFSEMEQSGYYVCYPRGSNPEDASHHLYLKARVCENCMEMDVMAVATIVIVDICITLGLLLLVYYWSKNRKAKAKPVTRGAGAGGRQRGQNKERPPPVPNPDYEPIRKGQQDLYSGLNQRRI
T1 sequence (Q95LI8 22-171, chain 2 of 3): as the sequence (P04234 22-171, chain 2 of 3) above, with I5V, N15K, I20V, S32T, D33N, I34N, T64A, S74N, V83L, H141R counted along it
T1 sequence (Q95LI7 23-181, chain 3 of 3): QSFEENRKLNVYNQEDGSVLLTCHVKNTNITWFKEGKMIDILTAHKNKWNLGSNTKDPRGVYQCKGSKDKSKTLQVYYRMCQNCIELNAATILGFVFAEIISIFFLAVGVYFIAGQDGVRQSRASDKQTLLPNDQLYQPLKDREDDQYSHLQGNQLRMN

B1: mAb 310 (antibody, V domains shown)
VH: QVQLVESGGGVVQPGRSLRLSCAASGFTFRSYGMHWVRQAPGKGLEWVTIIWYDGSKKYYADSVRGRFTISRDNSKNMLYLQMNSLRAEDTAVYYCASQEFNWNDGGFYYMDVWGKGTTVTVSS
VL: DIQLTQSPSFLSASVGDRVTITCRASQDISSYLHWCQQKPGKAPKLLIYGASTLQSGVPSRFSGSGSGKEFTLTISSLQPEDFATYYCQQLDNYPPTFGGGTKVEIK
notes: VH and VL only
Regarding B1, the binding result with cynomolgus monkey CD3 and in the test with human CD3 [1] was “no binding (tested: FOI ≥10 = positive; 25 nM)” each time.

B2: mAb 300 (antibody, V domains shown)
VH: EVQLLESGGGLVQPGGSLRLSCAASGFTFSRYAMSWVRQAPGRGLEWVSTISGSGGRTYYVDSVKGRFTISRDNSKNTLYLQMNSLRAEDTAVYYCAKMFSYYYYYMDVWGKGTTVTVSS
VL: EIVMTQSPATLSLSPGKRATLSCRASQSVSTTYLSWYLQKPGQAPRLLIYGASTRATGIPARFSGSGSGTDFTLTISSLQPEDFAVYYCQQDYNLPPYTFGQGTKLEIK
notes: VH and VL only
B2: the “Jurkat Cell Binding (FOI)” value with human CD3 [2] turned out to be 68 FOI. Further, the binding result with cynomolgus monkey CD3 was “no binding (tested: FOI ≥10 = positive; 25 nM)”. The “Human primary T Cell Binding (FOI)” value with human CD3 [3] is 26.7 FOI.

B3: mAb 292 (antibody, V domains shown)
VH: EVQLLESGGGLVQPGGSRRLSCAASGFTFSTYAMSWVRQAPGKGLEWVSVINGRGDDTNYADSVKGRFTISRDNSKNILFLQMNSLRAEDTAVYYCAKKYSYYYYYMDVWGKGTTVTVSS
VL: SYELTQPLSVSVALGQTARITCGGNNIGSKDVHWYQQKPGQAPVLVIYRDSNRPSGIPERFSGSNSGNTATLTISRAQAGDEADYYCQVWDSRTAVFGGGTQLTAL
notes: VH and VL only
B3: the “Jurkat Cell Binding (FOI)” value in the test with human CD3 [2] came to 227 FOI. Further, the binding result in the test with cynomolgus monkey CD3 was “no binding (tested: FOI ≥10 = positive; 25 nM)”. For the same molecule, the “Human primary T Cell Binding (FOI)” value with human CD3 [3] came to 255 FOI.

B4: mAb 319 (antibody, V domains shown)
VH: EVQLLESGGGLLQPGGSRRLSCAATEFTFRSYAMSWVRQSPGKGLEWVSVISGRGDNTYYADSVKGRFTISRDNSKNTLYLQMNSLRAEDTAVYYCAKMYSYYYYYMDVWGKGTTVTVSS
VL: SYELTQPLSVSVALGQTARITCGGNNIGSKNVHWHQQKPGQAPVLVIYRESNRPSGIPERFSGSNSGNTATLTSSRAQAGDEADYYCQVWDSSTAVFGGGTQLTAL
notes: VH and VL only
Regarding B4, the binding result with cynomolgus monkey CD3 and with human CD3 [1] was “no binding (tested: FOI ≥10 = positive; 25 nM)” each time.

B5: mAb 306 (antibody, V domains shown)
VH: EVQLLESGGGLVQPGGSLRLSCAASGFTFNSYAMSWVRQAPGRGLEWVSAISGRKSTTYYADSVKGRFTISRDNSKNTLYLQMNSLRAEDTAVYYCAKLWNYYYYYMDVWGKGTTVTVSS
VL: SYELTQPLSVSVALGQTARITCGGNNIGSKDVHWYQQKPGQAPVLVIYRDSNRPSGIPERFSGSNSGNTATLTISRAQAGDEADYYCQVWDSSTAVFGGGTQLTAL
notes: VH and VL only
Regarding B5, in the test with human CD3 [2], the “Jurkat Cell Binding (FOI)” value was 216 FOI. Besides, in the test with cynomolgus monkey CD3, the binding result is on record as “no binding (tested: FOI ≥10 = positive; 25 nM)”. In the test with human CD3 [3], the “Human primary T Cell Binding (FOI)” value is 219 FOI.

B6: mAb 312 (antibody, V domains shown)
VH: EGQLLESGGGLVQPGGSLRLSCAASGFTFSRYAMSWIRQAPGKGLEWVSVINGSGGDKNYADSVKGRFTISRDNSKNSLYLLMNGLRVEDTAIYFCAKKFSYYYYYMDVWGKGTSVTVSS
VL: SYELTQPLSVSVALGQTARITCGGNNIGSKNVHWHQQKPGQAPVLVIYRESNRPSGIPGRFSGSNSGNTATLTSSRAQAGDEADYYCQVWDSSTAVFGGGTQLTAL
notes: VH and VL only
For B6, the binding result with cynomolgus monkey CD3 and in the test with human CD3 [1] was “no binding (tested: FOI ≥10 = positive; 25 nM)” each time.

B7: mAb 318 (antibody, V domains shown)
VH: EGQLLESGGGLVQPGGSLRLSCAASGFTFSRYAMSWIRQAPGKGLEWVSVIDGSGGDKNYADSVKGRFTISRDNSKNSLYLLMNGLRVEDTAIYFCAKKFSYYYYYMDVWGKGTSVTVSS
VL: SYELTQPLSVSVALGQTARITCGGNNIGGKDVHWYQQKPGQAPVLVIYRDSNRPSGIPERFSGSNSGNTATLTISRAQAGDEADYYCQVWDSRTAVFGGGTQLTAL
notes: VH and VL only
Consider B7, for which the “Jurkat Cell Binding (FOI)” value with human CD3 [2] was determined as 211 FOI. Further, the binding result with cynomolgus monkey CD3 is given as “no binding (tested: FOI ≥10 = positive; 25 nM)”. Besides, in the test with human CD3 [3], the “Human primary T Cell Binding (FOI)” value came to 211 FOI.

B8: mAb 311 (antibody, V domains shown)
VH: EVQLLESGGGLVQPGGSRRLSCAASGFTFSSYAMSWVRQAPGKGLEWVSVINTRGDITSYADSVKGRFTISRDNSKNTLYLQMNSLRAEDTAVYYCAKKYSYYYYYMDVWGKGTTVTVSS
VL: SYELTQPLSVSVALGQTARITCGGNNIGSKNVHWHQQKPGQAPVLVIYRESNRPSGIPERFSGSNSGNTATLTSSRAQAGDEADYYCQVWDSSTAVFGGGTQLTAL
notes: VH and VL only
For B8, the binding result with cynomolgus monkey CD3 and with human CD3 [1] was “no binding (tested: FOI ≥10 = positive; 25 nM)” in each case.

B9: mAb 297 (antibody, V domains shown)
VH: EVQLLESGGGLVQPGGSLRLSCAASGFTFSSYAMNWVRQAPGKGLEWVSIISGGRRDDITYYAASVKGRFTISRDNSKNTLYLQMNSLRAEDTAVYYCAKMYNYYYYYIDVWGKGTTVTVSS
VL: SYELTQPLSVSVALGQTAKITCGGNNIGSKDVHWYQQKPGQAPVLVIYRDSNRPSGIPERFSGSNSGNTATLTISRAQAGDEADYYCQVWDSNTAVFGGGTQLTAL
notes: VH and VL only
In the case of B9, the “Jurkat Cell Binding (FOI)” value with human CD3 [2] came to 220 FOI. Besides, the binding result with cynomolgus monkey CD3 is “no binding (tested: FOI ≥10 = positive; 25 nM)”. For the same molecule, the “Human primary T Cell Binding (FOI)” value with human CD3 [3] is 211 FOI.

B10: mAb 294 (antibody, V domains shown)
VH: EVQLLESGGGLVQPGGSLRLSCAASGFTFSSSVMSWVRQGPGKGLEWVSAIRGSGVYTYYADSVKGRFTISRDNSKNTLYLQMNSLRAEDTAVYYCAKKYSYYYYYMDVWGKGTTVTVSS
VL: PYELTQPLSVSVALGQTARITCGGNNIGSKDVHWYQQKPGQAPVLVIYRDSNRPSGIPERFSGSNSGNTATLTISRAQAGDEADYYCQVWDSSTAVFGGGTQLTAL
notes: VH and VL only
With B10, the binding result with cynomolgus monkey CD3 and in the test with human CD3 [1] was “no binding (tested: FOI ≥10 = positive; 25 nM)” each time.

B11: mAb 296 (antibody, V domains shown)
VH: EVQLLESGGGLVQPGGSLRLSCAASGFTFSSYAMSWVRQAPGKGLEWVSAISGSGGTTYYTDSVKGRFTISRDNSKNTLYLQMNSLRAEDTAVYYCAKKYSYYYYYMDVWGKGTTVTVSS
VL: SYELTQPLSVSVALGQTARITCGGNNIGSKNVHWYQQKPGQAPVLVIYRDSNRPSGIPERFSGSNSGNTATLTISRAQAGDEADYYCQVWDSSTAVFGGGTQLTAL
notes: VH and VL only
On to B11, for which the “Jurkat Cell Binding (FOI)” value with human CD3 [2] came to 167 FOI. In the test with cynomolgus monkey CD3, the binding result is recorded as “no binding (tested: FOI ≥10 = positive; 25 nM)”. Also, the “Human primary T Cell Binding (FOI)” value in the test with human CD3 [3] amounted to 183 FOI.

B12: mAb 316 (antibody, V domains shown)
VH: EVQLLESGGGLVQPGGSRRLSCAASGFTFRTYAMSWVRQAPGKGLEWVSVINGRGDDTNYADSVKGRFTISRDNSKNILFLQMNSLRAEDTAVYYCAKKYSYYYYYMDVWGKGTTVTVSS
VL: SYELTQPLSVSVALGQTARITCGGNNIGSKDVHWYQQKPGQAPVLVIYRDSNRPSGIPERFSGSNSGNTATLTISRAQAGDEADYYCQVWDSRTAVFGGGTQLTAL
notes: VH and VL only
As to B12, the “Jurkat Cell Binding (FOI)” value in the test with human CD3 [2] is 253 FOI. In addition, the binding result in the test with cynomolgus monkey CD3 is reported as “no binding (tested: FOI ≥10 = positive; 25 nM)”. For the same molecule, the “Human primary T Cell Binding (FOI)” value with human CD3 [3] stood at 241 FOI.

B13: mAb 303 (antibody, V domains shown)
VH: EVHLLESGGGLVQPGGSLRLSCAASGFTFSSYAMNWVRQAPGKGLEWISIISGGRRSGITYYAASVKGRFTISRDNSKNTLDLQMNSLRAEDTAVYYCAKMYNYYYYYIDVWGKGTTVTVSS
VL: SYELTQPLSVSVALGQTARITCGGNNIGSKDVHWYQQKPGQAPVLVIYRDSNRPSGIPERFSGSNSGNTATLTISRAQAGDEADYYCQVWDSNTAVFGGGTQLTAL
notes: VH and VL only
For the molecule B13, the “Jurkat Cell Binding (FOI)” value with human CD3 [2] came out at 247 FOI. In addition, the binding result with cynomolgus monkey CD3 is “no binding (tested: FOI ≥10 = positive; 25 nM)”. Moreover, the “Human primary T Cell Binding (FOI)” value in the test with human CD3 [3] turned out to be 256 FOI.

B14: mAb 304 (antibody, V domains shown)
VH: EVQLLESGGGLVQPGGSRRLSCAASGFTFSSYAMSWVRQAPGKGLEWVSVISGRGDNTNYADSVKGRFTISRENSKNILYLQMNSLRAEDTAVYYCAKKYSYYYYYMDVWGKGTTVTVSS
VL: SYELTQPLSVSVALGQTARITCGGNNIGSKDVHWYQQKPGQAPVLVIYRDSNRPSGIPERFSGSNSGNTATLTISRAQAGDEADYYCQVWDSRTAVFGGGTQLTAL
notes: VH and VL only
Take B14: the “Jurkat Cell Binding (FOI)” value with human CD3 [2] amounted to 234 FOI. In the test with cynomolgus monkey CD3, the binding result is recorded as “no binding (tested: FOI ≥10 = positive; 25 nM)”. Moreover, in the test with human CD3 [3], the “Human primary T Cell Binding (FOI)” value turned out to be 226 FOI.

B15: mAb 301 (antibody, V domains shown)
VH: EVQLLESGGGLVQPGGSRRLSCAASGFTFSSYAMSWVRQAPGKGLEWVSVISGRGDNTNYADSVKGRFTISRENSKNMLYLQMNSLRAEDTAVYYCAKKYSYYYYYMDVWGKGTTVTVSS
VL: SYELTQPLSVSVALGQTARITCGGNNIGSKDVHWYQQKPGQAPVLVIYRDSNRPSGIPERFSGSNSGNTATLTISRAQAGDEADYYCQVWDSRTAVFGGGTQLTAL
notes: VH and VL only
Take B15: in the test with human CD3 [2], the “Jurkat Cell Binding (FOI)” value amounted to 253 FOI. Moreover, the binding result with cynomolgus monkey CD3 is “no binding (tested: FOI ≥10 = positive; 25 nM)”. For the same molecule, the “Human primary T Cell Binding (FOI)” value with human CD3 [3] is 283 FOI.
